Test results reported in patent US20110236874A1, “METHOD FOR FORMATION OF RENAL TUBULES” (priority 2008, published 2011).
“Also recorded” adds a separate entry of the source.

Tests used:
[1] = tested on: primary human renal proximal tubule cells (HPTCs); test: Quantification of α-SMA expression by immunoblotting; type: cell-based; conditions: HPTCs on laminin + collagen IV treated with BMP-7 100 ng/ml; control uncoated TCP; FIG. 3
Description: Immunoblotting: For immunoblotting, cells were lyzed in 100 μl of heated NuPage LDS sample buffer (Invitrogen). Samples were collected, heated at 95° C. and centrifuged at 10,000 g for 2 minutes to pellet cell debris. Protein concentrations of the supernatants were measured with a NANODROP™ spectrophotometer (Biofrontier, Singapore). Appropriate amounts of the supernatants were loaded onto a NuPage precast gel (4-12%, Invitrogen) with the size marker PAGE Ruler Plus (Fermentas, Hanover, Md., USA). Proteins were transferred to iBlot membranes after electrophoresis. […]
After washing, the membranes were incubated with 0.2 μl/ml of both peroxidase-conjugated sheep anti-mouse antibody and donkey anti-rabbit antibody. […] The films were scanned and analyzed using Adobe Photoshop CS3.
FIG. 3. Quantification of α-SMA expression by immunoblotting. […] Proteins were extracted in each case from 3 replicas, and the extract obtained from each sample was loaded onto a separate lane of the gel. α-SMA (lower bands, 42 kD) and α-tubulin (loading control, upper bands, 50 kD) were detected by immunoblotting. […] (B) The intensities of the bands shown in (A) were determined. […]

[2] = tested on: primary human renal proximal tubule cells (HPTCs); test: α-SMA immunostaining (myofibroblasts) in HPTC cultures on ECM coatings; type: cell-based; conditions: BMP-7 100 ng/ml constantly in the medium
Description: Immunostaining, histochemistry, and imaging: Immunostaining was performed as described in Sadoni et al. J Cell Biol 1999; 146(6): 1211-1226. The following primary antibodies were used: rabbit anti-ZO-1 (zonula occludens-1, Invitrogen, Carlsbad, Calif., USA) and mouse anti-α-smooth muscle actin (SMA) (Abcam, Cambridge, UK). Alexa Fluor 488-conjugated anti-rabbit (Invitrogen) and TRITC-conjugated anti-mouse (Invitrogen) secondary antibodies were applied. After immunostaining, cell nuclei were stained with DAPI and cells were mounted with vectashield (Vector Laboratories, Burlingame, Calif.) for microscopy. Histochemical detection of γGTP activity and controls were performed as described in Ryan et al. Kidney Int 1994; 45(1):48-57. Imaging was performed with a Zeiss AxioObserver Z1 microscope (Carl Zeiss, Jena, Germany) using the Zeiss AXIOVISION™ imaging software.
Disintegration of tight junctions after a certain time point is indicated. […]
Based on these observations, the question arose why the monolayer always disintegrated and could not be maintained for longer periods. […] Therefore, the presence of α-SMA-positive cells was monitored in the final experimental series. α-SMA is expressed in myofibroblasts but not in epithelial cells, and was detected in these experiments together with ZO-1 by co-immunostaining (FIG. 2).

B1: BMP-7: Bone morphogenetic protein (BMP)-7 (Sigma), added at 100 ng/ml (protein, UniProt P18075 293-431, looked up)
Bone morphogenetic protein 7: STGSKQRSQNRSKTPKNQEALRMANVAENSSSDQRQACKKHELYVSFRDLGWQDWIIAPEGYAAYYCEGECAFPLNSYMNATNHAIVQTLVHFINPETVPKPCCAPTQLNAISVLYFDDSSNVILKKYRNMVVRACGCH
For B1, the “α-SMA expression by immunoblotting (ratio to α-tubulin) versus control” value [1] was “significant differences compared to the control; also recorded: significantly (p 0.002) higher” and the “appearance of α-SMA-expressing cells and tight junction formation” value [2] was “high numbers of α-SMA-expressing cells, associated with poor formation of tight junctions”.
